# From patent WO2022059800A1 (dated 2022)
# B1: human recombinant Ang2 protein (ligand, UniProt O15123 19-496, looked up)
# chain: YNNFRKSMDSIGKKQYQVQHGSCSYTFLLPEMDNCRSSSSPYVSNAVQRDAPLEYDDSVQRLQVLENIMENNTQWLMKLENYIQDNMKKEMVEIQQNAVQNQTAVMIEIGTNLLNQTAEQTRKLTDVEAQVLNQTTRLELQLLEHSLSTNKLEKQILDQTSEINKLQDKNSFLEKKVLAMEDKHIIQLQSIKEEKDQLQVLVSKQNSIIEELEKKIVTATVNNSVLQKQQHDLMETVNNLLTMMSTSNSAKDPTVAKEEQISFRDCAEVFKSGHTTNGIYTLTFPNSTEEIKAYCDMEAGGGGWTIIQRREDGSVDFQRTWKEYKVGFGNPSGEYWLGNEFVSQLTNQQRYVLKIHLKDWEGNEAYSLYEHFYLSSEELNYRIHLKGLTGTAGKISSISQPGNDFSTKDGDNDKCICKCSQMLTGGWWFDACGPSNLNGMYYPQRQNTNKFNGIKWYYWKGSGYSLKATTMMIRPADF
# notes: also called rhAng2; angiopoietin-2
# Biological target: T1, recombinant Tie2-Fc fusion protein (R&D systems) (UniProt Q02763 23-745)
# T1 construct: not shown: Fc part
# Assay: Biacore 8K, Ang2 amine-coupled, Tie2-Fc as analyte, single-cycle kinetics
# T1 sequence (Q02763 23-745 limits assumed): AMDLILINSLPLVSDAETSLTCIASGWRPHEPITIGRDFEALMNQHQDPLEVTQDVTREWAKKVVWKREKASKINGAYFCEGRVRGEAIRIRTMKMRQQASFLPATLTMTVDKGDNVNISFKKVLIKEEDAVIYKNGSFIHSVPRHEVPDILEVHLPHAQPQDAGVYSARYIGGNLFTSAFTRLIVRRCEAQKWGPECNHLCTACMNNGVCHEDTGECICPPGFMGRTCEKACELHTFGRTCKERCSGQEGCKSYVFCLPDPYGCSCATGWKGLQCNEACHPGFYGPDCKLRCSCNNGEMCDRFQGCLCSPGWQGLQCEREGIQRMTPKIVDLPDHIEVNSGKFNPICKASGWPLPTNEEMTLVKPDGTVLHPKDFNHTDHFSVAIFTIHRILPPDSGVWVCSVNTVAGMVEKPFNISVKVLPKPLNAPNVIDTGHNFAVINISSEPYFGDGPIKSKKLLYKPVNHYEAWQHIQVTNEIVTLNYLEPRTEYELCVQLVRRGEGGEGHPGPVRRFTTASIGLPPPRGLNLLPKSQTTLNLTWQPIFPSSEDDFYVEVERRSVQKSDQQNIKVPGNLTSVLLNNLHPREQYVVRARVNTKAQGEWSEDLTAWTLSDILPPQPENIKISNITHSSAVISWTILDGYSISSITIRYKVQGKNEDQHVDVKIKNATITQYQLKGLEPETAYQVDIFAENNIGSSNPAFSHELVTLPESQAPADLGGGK
binder,measurement,value
B1,Kd,4.26 nM
